Laboratory results reported in the supplement of paper PMC10567573.

B1: ZNF649 (parent)
chain: YHTGKTPFVCPECGQPCSQKSGLI

Variants of: B1
Test: protein stability index of a GFP-peptide fusion (GPS, HEK-293T) (PSI 1-6); higher = more stable
Conditions: c terminus: a fixed tail appended
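Note: lentivirally expressed fusions sorted by FACS into six bins by GFP to DsRed ratio, PSI derived from sequencing read proportions per bin multiplied by bin number.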

Compared with YHTGKTPFVCPECGWPCSQKSGLI [Q15W], YHTGKTPFVCPECGCPCSQKSGLI [Q15C] is higher in protein stability index: 1.83 for the first, 1.89 for the second.

Compared with YHTGKTPFVCPECGRPCSQKSGLI [Q15R], YHTGKTPFVCPECGIPCSQKSGLI [Q15I] is lower in protein stability index: 1.63 for the first, 1.62 for the second.

Going from YHTGKTPFVCPECGVPCSQKSGLI [Q15V] to YHTGKTPFVCPECGTPCSQKSGLI [Q15T], the protein stability index rises from 1.5 to 2.35.

First: YHTGKTPFVCPECGKPCSQKSGLI [Q15K]
Second: YHTGKTPFVCPECGYPCSQKSGLI [Q15Y]
The protein stability index of the first is higher: 2.35 for the first, 1.75 for the second.

Compared with YHTGKTPFVCPECGSPCSQKSGLI [Q15S], YHTGKTPFVCPECGHPCSQKSGLI [Q15H] is higher in protein stability index: 2.21 for the first, 2.23 for the second.

Going from YHTGKTPFVCPECGFPCSQKSGLI [Q15F] to YHTGKTPFVCPECGMPCSQKSGLI [Q15M], the protein stability index falls from 3.01 to 2.16.

First: YHTGKTPFVCPECGEPCSQKSGLI [Q15E]
Second: YHTGKTPFVCPECGNPCSQKSGLI [Q15N]
The protein stability index of the first is lower: 2.65 for the first, 3.41 for the second.

First: YHTGKTPFVCPECGGPCSQKSGLI [Q15G]
Second: YHTGKTPFVCPECGQACSQKSGLI [P16A]
The protein stability index of the first is lower: 1.45 for the first, 2.79 for the second.

Compared with YHTGKTPFVCPECGQDCSQKSGLI [P16D], YHTGKTPFVCPECGQCCSQKSGLI [P16C] is higher in protein stability index: 1.91 for the first, 4.29 for the second.

Compared with YHTGKTPFVCPECTQPCSQKSGLI [G14T], YHTGKTPFVCPECEQPCSQKSGLI [G14E] is lower in protein stability index: 3.65 for the first, 1.95 for the second.

Compared with YHTGKTPFVCPECRQPCSQKSGLI [G14R], YHTGKTPFVCPECAQPCSQKSGLI [G14A] is lower in protein stability index: 3.6 for the first, 2.16 for the second.

First: YHTGKTPFVCPECPQPCSQKSGLI [G14P]
Second: YHTGKTPFVCPECSQPCSQKSGLI [G14S]
The protein stability index of the first is higher: 2.54 for the first, 1.72 for the second.

Compared with YHTGKTPFVCPECMQPCSQKSGLI [G14M], YHTGKTPFVCPECFQPCSQKSGLI [G14F] is lower in protein stability index: 2.05 for the first, 1.94 for the second.

Going from YHTGKTPFVCPECWQPCSQKSGLI [G14W] to YHTGKTPFVCPECYQPCSQKSGLI [G14Y], the protein stability index rises from 1.61 to 2.27.

Going from YHTGKTPFVCPECIQPCSQKSGLI [G14I] to YHTGKTPFVCPECQQPCSQKSGLI [G14Q], the protein stability index rises from 1.79 to 2.31.

First: YHTGKTPFVCPECKQPCSQKSGLI [G14K]
Second: YHTGKTPFVCPECVQPCSQKSGLI [G14V]
The protein stability index of the first is higher: 2.76 for the first, 2.06 for the second.

First: YHTGKTPFVCPECCQPCSQKSGLI [G14C]
Second: YHTGKTPFVCQECGQPCSQKSGLI [P11Q]
The protein stability index of the first is higher: 2.12 for the first, 1.57 for the second.

Going from YHTGKTPFVCVECGQPCSQKSGLI [P11V] to YHTGKTPFVCTECGQPCSQKSGLI [P11T], the protein stability index rises from 2.33 to 2.49.

First: YHTGKTPFVCGECGQPCSQKSGLI [P11G]
Second: YHTGKTPFVCRECGQPCSQKSGLI [P11R]
The protein stability index of the first is lower: 1.43 for the first, 1.79 for the second.

Going from YHTGKTPFVCFECGQPCSQKSGLI [P11F] to YHTGKTPFVCHECGQPCSQKSGLI [P11H], the protein stability index falls from 2.44 to 2.16.

First: YHTGKTPFVCLECGQPCSQKSGLI [P11L]
Second: YHTGKTPFVCNECGQPCSQKSGLI [P11N]
The protein stability index of the first is higher: 1.71 for the first, 1.62 for the second.

Compared with YHTGKTPFVCSECGQPCSQKSGLI [P11S], YHTGKTPFVCMECGQPCSQKSGLI [P11M] is higher in protein stability index: 1.93 for the first, 2.32 for the second.

Compared with YHTGKTPFVCIECGQPCSQKSGLI [P11I], YHTGKTPFVCAECGQPCSQKSGLI [P11A] is higher in protein stability index: 1.69 for the first, 2.04 for the second.

First: YHTGKTPFVCKECGQPCSQKSGLI [P11K]
Second: YHTGKTPFVCDECGQPCSQKSGLI [P11D]
The protein stability index of the first is higher: 2.46 for the first, 1.4 for the second.

Compared with YHTGKTPFVCEECGQPCSQKSGLI [P11E], YHTGKTPFVCCECGQPCSQKSGLI [P11C] is higher in protein stability index: 1.61 for the first, 1.65 for the second.

First: YHTGKTPFVCPEYGQPCSQKSGLI [C13Y]
Second: YHTGKTPFVCPESGQPCSQKSGLI [C13S]
The protein stability index of the first is higher: 3.41 for the first, 1.62 for the second.

Going from YHTGKTPFVCPEDGQPCSQKSGLI [C13D] to YHTGKTPFVCPEHGQPCSQKSGLI [C13H], the protein stability index rises from 2.6 to 3.

Compared with YHTGKTPFVCPENGQPCSQKSGLI [C13N], YHTGKTPFVCPETGQPCSQKSGLI [C13T] is higher in protein stability index: 1.83 for the first, 2.99 for the second.

First: YHTGKTPFVCPEPGQPCSQKSGLI [C13P]
Second: YHTGKTPFVCPEQGQPCSQKSGLI [C13Q]
The protein stability index of the first is lower: 2.27 for the first, 2.54 for the second.

First: YHTGKTPFVCPEAGQPCSQKSGLI [C13A]
Second: YHTGKTPFVCPEIGQPCSQKSGLI [C13I]
The protein stability index of the first is higher: 3.53 for the first, 2.35 for the second.

First: YHTGKTPFVCPEFGQPCSQKSGLI [C13F]
Second: YHTGKTPFVCPEKGQPCSQKSGLI [C13K]
The protein stability index of the first is lower: 2.8 for the first, 3.33 for the second.

Compared with YHTGKTPFVCPEVGQPCSQKSGLI [C13V], YHTGKTPFVCPEMGQPCSQKSGLI [C13M] is higher in protein stability index: 2.13 for the first, 2.98 for the second.

Going from YHTGKTPFVCPERGQPCSQKSGLI [C13R] to YHTGKTPFVCPEEGQPCSQKSGLI [C13E], the protein stability index rises from 2.37 to 2.87.

First: YHTGKTPFVRPECGQPCSQKSGLI [C10R]
Second: YHTGKTPFVWPECGQPCSQKSGLI [C10W]
The protein stability index of the first is lower: 1.75 for the first, 2.79 for the second.

First: YHTGKTPFVPPECGQPCSQKSGLI [C10P]
Second: YHTGKTPFVNPECGQPCSQKSGLI [C10N]
The protein stability index of the first is lower: 1.54 for the first, 2.23 for the second.

Going from YHTGKTPFVSPECGQPCSQKSGLI [C10S] to YHTGKTPFVLPECGQPCSQKSGLI [C10L], the protein stability index falls from 2.85 to 2.06.

First: YHTGKTPFVYPECGQPCSQKSGLI [C10Y]
Second: YHTGKTPFVQPECGQPCSQKSGLI [C10Q]
The protein stability index of the first is higher: 2.29 for the first, 1.27 for the second.

Compared with YHTGKTPFVTPECGQPCSQKSGLI [C10T], YHTGKTPFVMPECGQPCSQKSGLI [C10M] is lower in protein stability index: 2.37 for the first, 1.53 for the second.

Going from YHTGKTPFVVPECGQPCSQKSGLI [C10V] to YHTGKTPFVCPQCGQPCSQKSGLI [E12Q], the protein stability index rises from 1.81 to 1.9.

First: YHTGKTPFVCPHCGQPCSQKSGLI [E12H]
Second: YHTGKTPFVCPKCGQPCSQKSGLI [E12K]
The protein stability index of the first is lower: 1.54 for the first, 2.35 for the second.

Compared with YHTGKTPFVCPTCGQPCSQKSGLI [E12T], YHTGKTPFVCPGCGQPCSQKSGLI [E12G] is higher in protein stability index: 2.07 for the first, 3.37 for the second.

Compared with YHTGKTPFVCPYCGQPCSQKSGLI [E12Y], YHTGKTPFVCPWCGQPCSQKSGLI [E12W] is lower in protein stability index: 2.26 for the first, 2.06 for the second.

Compared with YHTGKTPFVCPNCGQPCSQKSGLI [E12N], YHTGKTPFVCPDCGQPCSQKSGLI [E12D] is higher in protein stability index: 1.53 for the first, 3.08 for the second.

First: YHTGKTPFVCPICGQPCSQKSGLI [E12I]
Second: YHTGKTPFVCPMCGQPCSQKSGLI [E12M]
The protein stability index of the first is higher: 1.91 for the first, 1.23 for the second.

First: YHTGKTPFVCPACGQPCSQKSGLI [E12A]
Second: YHTGKTPFVCPFCGQPCSQKSGLI [E12F]
The protein stability index of the first is lower: 1.96 for the first, 2.31 for the second.

First: YHTGKTPFVCPLCGQPCSQKSGLI [E12L]
Second: YHTGKTPFVCPSCGQPCSQKSGLI [E12S]
The protein stability index of the first is higher: 2.16 for the first, 2.11 for the second.

First: YHTGKTPFVCPRCGQPCSQKSGLI [E12R]
Second: YHTGKTPFVCPVCGQPCSQKSGLI [E12V]
The protein stability index of the first is higher: 2.32 for the first, 2.22 for the second.
